What all share (experiment): SEC; Superdex S200 10/300 GL, buffer A (20 mM Tris-HCl pH 7.5, 18% glycerol) with 150 mM NaCl; mass from calibration with standard proteins; quaternary structure of the purified protein
The target in assay [1] is FdpA (CD1157), class A flavodiiron protein of Clostridioides difficile (Clostridioides difficile).
Assay [2] addresses revRbr1 (CD1474), reverse rubrerythrin 1 of Clostridioides difficile (Clostridioides difficile (strain 630Δerm genomic DNA)).
Assay [3] has as its target revRbr2 (CD1524), reverse rubrerythrin 2 of Clostridioides difficile (Clostridioides difficile (strain 630Δerm genomic DNA)).

The source of these data is article PMC7482061.

Consider “FdpA (CD1157), class A flavodiiron protein of Clostridioides difficile (enzyme)”, for which the stoichiometry N (commonly the number of molecules, sites or subunits per partner or assembly) in assay [1] worked out at 2.

Consider “revRbr1 (CD1474), reverse rubrerythrin 1 of Clostridioides difficile (enzyme)”, for which the stoichiometry N in assay [2] is 4. In the case of “revRbr2 (CD1524), reverse rubrerythrin 2 of Clostridioides difficile (enzyme)”, the stoichiometry N in assay [3] amounted to 4.
